{"source": "paper PMC2811017", "assay_in_all_cases": "ITC", "key": {"[1]": {"molecular_target": "full-length human eRF3a (GSPT1) (human)"}, "[2]": {"molecular_target": "full-length human eRF3a (GSPT1) (human)", "remark": "listed apart in the source"}, "[3]": {"molecular_target": "eRF1:eRF3 complex (human) (UniProt P62495)"}}, "note": "Where two headings read alike, the source gives them in different places."}
{"substance": "human 6His eRF1 (from UniProt P62495 1-437) (natural protein)", "values": [{"measurement": "Ka", "setting": "[1]", "value": "1.1e+06", "unit": "M⁻¹"}, {"measurement": "dH", "setting": "[1]", "value": -10.8, "unit": "kcal/mol"}, {"measurement": "Ka", "setting": "[2]", "value": "4.4e+06", "unit": "M⁻¹"}, {"measurement": "dH", "setting": "[2]", "value": -6.1, "unit": "kcal/mol"}]}
{"substance": "human 6His cytoplasmic poly(A)-binding protein (PABP) (from UniProt P11940 1-636) (natural protein)", "values": [{"measurement": "Kd", "setting": "[3]", "value": 700, "unit": "nM"}, {"measurement": "dH", "setting": "[3]", "value": -26.3, "unit": "kcal/mol"}, {"measurement": "stoichiometry N (PABP per eRF3)", "setting": "[3]", "value": 0.71}, {"measurement": "Kd", "setting": "[2]", "value": 700, "unit": "nM"}, {"measurement": "dH", "setting": "[2]", "value": -30.3, "unit": "kcal/mol"}, {"measurement": "stoichiometry N (PABP per eRF3)", "setting": "[2]", "value": 0.5}]}
